# Measurements: PMC6795507 (Science Advances, 2019)
# Several values for one entry are separate records, joined by “and”; a condition that tells them apart may be missing. Identical values can stand only once.
# B1: His-tagged tail fiber protein of phage P68 (recombinant) (natural protein)
# chain: MAYNENDFKYFDDIRPFLDEIYKTRERYTPFYDDRADYNTNSKSYYDYISRLSKLIEVLARRIWDYDNELKKRFKNWDDLMKAFPEQAKDLFRGWLNDGTIDSIIHDEFKKYSAGLTSAFALFKVTEMKQMNDFKSEVKDLIKDIDRFVNGFELNELEPKFVMGFGGIRNAVNQSINIDKETNHMYSTQSDSQKPEGFWINKLTPSGDLISSMRIVQGGHGTTIGLERQSNGEMKIWLHHDGVAKLLQVAYKDNYVLDLEEAKGLTDYTPQSLLNKHTFTPLIDEANDKLILRFGDGTIQVRSRADVKNHIDNVEKEMTIDNSENNDNRWMQGIAVDGDDLYWLSGNSSVNSHVQIGKYSLTTGQKIYDYPFKLSYQDGINFPRDNFKEPEGICIYTNPKTKRKSLLLAMTNGGGGKRFHNLYGFFQLGEYEHFEALRARGSQNYKLTKDDGRALSIPDHIDDLNDLTQAGFYYIDGGTAEKLKNMPMNGSKRIIDAGCFINVYPTTQTLGTVQELTRFSTGRKMVKMVRGMTLDVFTLKWDYGLWTTIKTDAPYQEYLEASQYNNWIAYVTTAGEYYITGNQMELFRDAPEEIKKVGAWLRVSSGNAVGEVRQTLEANISEYKEFFSNVNAETKHREYGWVAKHQK
# What was measured:
# [1] = target: lower collar protein gp18 of phage P68 (Staphylococcus aureus phage P68); assay: cryo-EM structure
# [2] = target: portal protein gp19 of phage P68 (Staphylococcus aureus phage P68); assay: cryo-EM structure
# [3] = target: tail fiber gp17 of phage P68 (in the virion) (Staphylococcus aureus phage P68); assay: cryo-EM structure
# [4] = target: head fiber gp14 of phage P68 (Staphylococcus aureus phage P68); assay: cryo-EM structure
# [5] = target: major capsid protein gp20 of phage P68 (Staphylococcus aureus phage P68); assay: cryo-EM structure
# [6] = target: the molecule itself; assay: crystal structure
molecule,measurement,setting,value
lower collar protein gp18 of phage P68 (natural protein),stoichiometry N,[1],12
portal protein gp19 of phage P68 (natural protein),stoichiometry N,[2],12
tail fiber gp17 of phage P68 (in the virion) (natural protein),stoichiometry N,[3],3
inner core protein gp22 of phage P68 (natural protein),stoichiometry N,[2],6
head fiber gp14 of phage P68 (natural protein),stoichiometry N,[4],3
major capsid protein gp20 of phage P68 (natural protein),stoichiometry N,[5],5 and 6
B1,stoichiometry N,[6],3
